This data set concerns the molecule itself. The experiment in a line: negative stain and cryo-electron microscopy of assemblies on liposomes.

B1: EndophilinA1 (natural protein, human, UniProt Q99962 1-352, looked up)
chain: MSVAGLKKQFHKATQKVSEKVGGAEGTKLDDDFKEMERKVDVTSRAVMEIMTKTIEYLQPNPASRAKLSMINTMSKIRGQEKGPGYPQAEALLAEAMLKFGRELGDDCNFGPALGEVGEAMRELSEVKDSLDIEVKQNFIDPLQNLHDKDLREIQHHLKKLEGRRLDFDYKKKRQGKIPDEELRQALEKFDESKEIAESSMFNLLEMDIEQVSQLSALVQAQLEYHKQAVQILQQVTVRLEERIRQASSQPRREYQPKPRMSLEFPTGDSTQPNGGLSHTGTPKPSGVQMDQPCCRALYDFEPENEGELGFKEGDIITLTNQIDENWYEGMLHGHSGFFPINYVEILVALPH
Take B1: the binding result is recorded as “binds”.

These data come from PMC6089609 (Methods in cell biology, 2015).
